We go through 1 substance from patent US20110243934A1.

The target in the experiment is EphA3 antigen (UniProt P29320). The experiment is described as follows: ELISA. Background: An ELISA detects its analyte on a solid surface through an enzyme-linked reagent.
Chain of UniProt P29320 (P29320 21-541 limits assumed): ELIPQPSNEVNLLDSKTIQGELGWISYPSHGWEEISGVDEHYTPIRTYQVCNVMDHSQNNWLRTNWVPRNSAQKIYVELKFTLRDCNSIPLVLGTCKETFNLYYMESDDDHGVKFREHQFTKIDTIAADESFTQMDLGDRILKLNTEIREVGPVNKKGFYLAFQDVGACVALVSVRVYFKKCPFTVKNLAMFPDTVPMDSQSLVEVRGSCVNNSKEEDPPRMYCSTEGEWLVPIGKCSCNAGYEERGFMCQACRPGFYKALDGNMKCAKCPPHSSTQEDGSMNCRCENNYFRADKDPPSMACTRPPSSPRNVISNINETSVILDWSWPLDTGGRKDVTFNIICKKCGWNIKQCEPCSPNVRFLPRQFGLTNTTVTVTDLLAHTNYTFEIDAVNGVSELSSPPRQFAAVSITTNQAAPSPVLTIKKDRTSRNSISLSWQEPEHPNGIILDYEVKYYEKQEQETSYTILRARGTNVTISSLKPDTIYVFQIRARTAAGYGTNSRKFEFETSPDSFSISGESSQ

monoclonal antibody IIIA4 came in with an AFFINITY of 2.5 nM.
